Source: the Human Domainome abundance scans (Beltran et al. 2025)

B1: Syntaxin-binding protein 4, residues 493 to 538; numbered along this chain, Q6ZWJ1 (parent)
chain: LDMDCLPYGWEEAYTADGIKYFINHVTQTTSWIHPVMSVLNLSRSE

Variants of: B1
Assay: abundance fitness (aPCA) (normalised: wild type 0, dead -1); higher = more abundant; growth selection in yeast, the domain comes from the species named
Details: Homo sapiens

Abundance fitness: each site, then its substitutions
I19: D 0.771 | Y -0.034 | T 0.234 | E 1.09 | V 0.054 | P -0.761 | M 0.313 | K 0.791 | C 0.348 | N 0.65 | W -0.566 | A 0.708 | F -0.352 | S 0.634 | Q 0.7 | R 0.428 | G -0.062 | H 0.293
N24: S -0.93 | D -0.668 | Y -0.638 | E -0.715 | M -0.978 | Q -0.923 | F -0.835 | C -0.798 | T -0.909 | H -0.282 | W -0.609 | P -0.837 | K -1.12 | G -0.72 | L -0.932 | V -0.74 | R -0.876
G18: T -0.949 | W -0.493 | V -0.867 | S -0.725 | Q -0.661 | Y -0.787
H25: F -0.514 | D -1.1 | W -0.916 | S -0.006 | K 0.25 | Y -0.941 | N 0.599 | M -0.94 | V -0.67 | I -0.754 | R 0.108 | G -0.687 | E -0.502 | L -0.931 | T 0.033 | C -0.824 | A -0.927 | P -0.236
Y21: R -0.962 | I -0.894 | F -0.91 | M -1.03 | V -0.998 | T -0.93 | Q -0.544 | N -0.731 | D -0.989 | S -0.778 | A -0.952 | E -0.953 | K -0.923 | H -1.05 | C -0.908 | W -0.674 | G -0.873
I23: Q -0.829 | P -0.4 | L -0.57 | G -0.889 | K -0.282 | A -0.781 | R -0.241 | N -0.708 | F -0.715 | D -0.731 | M -0.733 | H -0.833 | C -0.892 | S -0.49 | T -0.786 | E -1.08 | Y -0.209 | W -0.811 | V 0.023
Q28: A -0.509 | E -0.525 | C -0.573 | D -0.467 | F -0.422 | G 0.294
K20: C -0.753 | D -0.743 | V -0.717 | T -0.767 | I -0.853 | N -0.54 | Q -0.897 | R -0.198 | F -0.919 | W -0.686 | L -0.794 | P -0.141 | H -0.444 | A -0.699 | G -0.857 | M -0.848 | S -0.836 | Y -0.783
V26: S -0.07 | A 0.058 | T 0.168 | W -0.846 | K -0.29 | D -0.087 | M -0.29 | Q -0.004 | I -0.038 | R -0.096 | G 0.022 | F -0.294 | H 0.137 | L -0.482
T27: Q -0.344 | N -0.407 | H 0.176 | V -0.872 | Y 0.394 | F 0.071 | P -0.772 | E -0.672 | W -0.179 | R -0.234 | G -0.248 | S -0.348 | M 0.168 | I -0.814 | D -0.127 | K -0.045 | A -0.513 | L 0.644
F22: D -0.794 | C -0.659 | T -0.458 | G -0.782 | K -0.637 | V -0.904 | R -0.872 | S -0.832 | Q -0.823 | N -0.787 | P -0.895 | E -0.789 | L -0.854 | M -0.44 | A -0.956 | I -0.728
